Consider 21 sequences from the supplement of paper PMC12764529.

Series [1] is described as follows: folding stability dG unfold from trypsin proteolysis; higher = more stable. In a few lines: (§1)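 Unfolding free energy was derived, per protease or combined, by relating Bayesian-fitted K50 values from sequencing counts to a sequence-predicted unfolded-state K50 and a shared folded-state K50. The underlying digests exposed cysteine-free mini-proteins under 80 residues, in a PA-tagged cDNA display construct, to trypsin and chymotrypsin at 11 threefold-diluted concentrations and to a no-protease condition. A filter kept only designs with AlphaFold2 dimer inter-PAE above 15.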

Series [2] in a line: folding stability dG unfold (combined trypsin and chymotrypsin); higher = more stable. An outline of the steps:
as §1

Series [3] in a line: folding stability dG unfold from chymotrypsin proteolysis; higher = more stable. An outline of the steps: as §1

± gives the half width of the 95% confidence interval.

On to “SSSSEVKVERYPDSYLVTITIREGDKEVGTLSYPLNGSLTVEEVLEEVQKRYPDLPVSFSTSVPVPPPAPSA [r9_364_JUSTAS]”, for which the “folding stability dG unfold” value in series [1] stood at 3.46 ± 0.11 kcal/mol; in series [2] it was 3.8 ± 0.13 kcal/mol; in series [3], 3.88 ± 0.073 kcal/mol.

As for “SSSSMKTITLEKKITSPEEAEALREELLKKGYEVEVKVYPHPDSYIAKITVTIEVPPPPLSPTNPSALLKSA [r9_863_JUSTAS]”, the “folding stability dG unfold” value in series [1] is 1.19 ± 0.061 kcal/mol; in series [2] it was 0.967 ± 0.22 kcal/mol; in series [3], 0.913 ± 0.2 kcal/mol.

In the case of “SSSSSRTIEYPDSTLELTFTTTPLPDDTYRVPVQVTRYDPVTKTWSTRNLTVPFPPSDPEAAAEAVIARLLS [r1_171_JUSTAS]”, the “folding stability dG unfold” value in series [1] was determined as 0.11 ± 0.1 kcal/mol; in series [2], 0.355 ± 0.092 kcal/mol; in series [3], 0.39 ± 0.11 kcal/mol.

In the case of “SSSVSVTRTRDPRTGRLVVTVSMNYEDDPEEAVEAAKALLEAAGLDVAEVLSITVDPSTGTVTIPIAVAPSA [r9_876_JUSTAS]”, the “folding stability dG unfold” value in series [1] was found to be 2.79 ± 0.062 kcal/mol; in series [2], 3.05 ± 0.064 kcal/mol; in series [3] it was 3.15 ± 0.076 kcal/mol.

Take “SSVPADAAPVTVTETVTVTLPVDTATGGVPEERVAAAREAAAARGFTEFTVTTDPAAGTVTVTVTRTSRVSA [r9_201_JUSTAS]”: the results for the “folding stability dG unfold” value in series [1], in series [2] and in series [3] were 0.77 ± 0.055 kcal/mol, 1.11 ± 0.054 kcal/mol and 1.27 ± 0.035 kcal/mol, respectively.

On to “SSYTVLEEKVESDPNKDSLTYLTLKTPDGRELTVTEPVKKVDDSWITNSTLTDPVGGRTTTSTTTVKLSGSA [r9_269_JUSTAS]”, for which the entries for the “folding stability dG unfold” value in series [1], in series [2] and in series [3] were -0.977 ± 0.29 kcal/mol, -0.487 ± 0.13 kcal/mol and -0.409 ± 0.17 kcal/mol, respectively.

On to “STIMIMFRSPEDLEKFLNEAKEMIRNGKNVPITIMAHGPNGRYWMFTIDIKMDPDGNPKIEIEWEPVPPDSA [r9_1023_TrROS]”, for which the entries for the “folding stability dG unfold” value in series [1], in series [2] and in series [3] were 3.23 ± 0.1 kcal/mol, 3.89 ± 0.099 kcal/mol and 4.24 ± 0.043 kcal/mol, respectively.

For the sequence “STSTTITYPTLTISVEESVLPDGTPRYTVTLHLPEKGVSIPVEVDSAAEAEEAVREAIRKLLPDETVEEESA [r9_749_JUSTAS]”, the “folding stability dG unfold” value was 2.24 ± 0.12 kcal/mol in series [1], 2.23 ± 0.2 kcal/mol in series [2] and 2.24 ± 0.16 kcal/mol in series [3].

Consider “SVIIYMPWDNIPNMLRQLKALAKNGQKPVTIYMPVPEDWRRELREWLDDYGITVEPHPDNDWYKIEIEPKSA [r9_600_TrROS]”, for which the “folding stability dG unfold” value in series [1] is 2.54 ± 0.069 kcal/mol; in series [2], 3.09 ± 0.077 kcal/mol; in series [3], 3.318 ± 0.0095 kcal/mol.

As for “SVIKLPIWYPNSPAEQAEEMVQSLARKFMDKYGLKIDVEVETRRDPDGKPRWVRIEATIQYRDEDGKPIFSA [r9_21_TrROS]”, the entries for the “folding stability dG unfold” value in series [1], in series [2] and in series [3] were 1.81 ± 0.084 kcal/mol, 2.07 ± 0.26 kcal/mol and 2 ± 0.073 kcal/mol, respectively.

With “SVPVAPDKTYEIENIEEGNYLIKGLTLTPLPDGSVKIDKDIEPIEIPPKPPPLKYDPVKGGFIKPNDPLLSA [r9_603_JUSTAS]”, the “folding stability dG unfold” value in series [1] turned out to be 0.319 ± 0.08 kcal/mol; in series [2], 0.434 ± 0.14 kcal/mol; in series [3] it was 0.592 ± 0.19 kcal/mol.

Take “SWKIKISIERTGDWITVKIWYDNPSELRNAIEMIAEKLGMKVEIDDVSWKRDPNGWYEATITVRIKPGMPSA [r9_102_TrROS]”: the “folding stability dG unfold” value in series [1] is 3.27 ± 0.18 kcal/mol; in series [2], 3.42 ± 0.16 kcal/mol; in series [3], 3.31 ± 0.077 kcal/mol.

“SWQIKEVFPLPNGMRIKVYIHPDGYVQVSIRMYRPNPNDGKPQRQRFSITVPLPPGKPPSIDDILDYILNSA [r9_614_TrROS]”: the figures for the “folding stability dG unfold” value in series [1], in series [2] and in series [3] were 2.36 ± 0.051 kcal/mol, 2.44 ± 0.22 kcal/mol and 2.24 ± 0.21 kcal/mol, respectively.

On to “SWTFPILIRFPFDDPEDLDKAREMAEDLVRYLAEEFGWPVKIDKVKYERNPENGWVWIRAEITVTPPDDVSA [r9_105_TrROS]”, for which the “folding stability dG unfold” value was determined as 3.62 ± 0.08 kcal/mol in series [1], 4.9 ± 0.11 kcal/mol in series [2] and 5.31 ± 0.098 kcal/mol in series [3].

Regarding “SWWYIVTIKIWKPGNGEPKGPIMLFVRSPEEAEEIAEEPAPEHGYDVEVNVKRIPPDDMDDPEQMKEMMNSA [r9_864_TrROS]”, the “folding stability dG unfold” value in series [1] is 1.82 ± 0.035 kcal/mol; in series [2], 2.07 ± 0.37 kcal/mol; in series [3], 2.56 ± 0.13 kcal/mol.

With “SWWYMVKIEIENGGKPIKIPVPVNDLDDFIDNAREAIPPDLADQLPPNMEVEVEVMPIPRVDPENGKPRPSA [r9_111_TrROS]”, the figures for the “folding stability dG unfold” value in series [1], in series [2] and in series [3] were 0.866 ± 0.054 kcal/mol, 1.1 ± 0.15 kcal/mol and 1.42 ± 0.15 kcal/mol, respectively.

“SWYIIRIEIKIRNPKDGKSFDIEIMIHAPVEEAKEIAKEIASMFPGMRVEVKITEVMPMPPMTPEQLEKMSA [r9_421_TrROS]”: the “folding stability dG unfold” value was determined as 2.23 ± 0.081 kcal/mol in series [1], 3.25 ± 0.076 kcal/mol in series [2] and 3.721 ± 0.027 kcal/mol in series [3].

On to “SYLPESVPYDLVELTVVAKGKSPEYLEKKIKEAFKDVKIEPFYDPEKKLVTFKIVFPNKETAEKFKELVSSA [r9_764_TrMRF]”, for which the “folding stability dG unfold” value in series [1] was 1.93 ± 0.054 kcal/mol; in series [2] it was 2.16 ± 0.07 kcal/mol; in series [3] it was 2.28 ± 0.041 kcal/mol.

Take “TPLTTSTTTVPPSEIATPVTFNAPLSPDTSVTITTYDSATGTTSPVFSTTSASVTLTDLPNVSTATVVVVSS [r1_224_JUSTAS]”: the “folding stability dG unfold” value in series [1] is 0.702 ± 0.018 kcal/mol; in series [2], 0.459 ± 0.068 kcal/mol; in series [3], -0.255 ± 0.23 kcal/mol.

On to “TTKTYTTPVIKKMTVTFDKTEGNEATLTITATLPDGTPVTLPFPLTLETGKLDPAVVEAAIKAAVATAIAQS [r1_124_JUSTAS]”, for which the “folding stability dG unfold” value in series [1] was 0.892 ± 0.07 kcal/mol; in series [2], 1.23 ± 0.2 kcal/mol; in series [3] it was 1.37 ± 0.12 kcal/mol.

With “WRIRVEIEMYNPDGDPMEMEIQIPVDKLQELRQEGEPFTKEELVDEIVEIIRDMMPEHGMPIEIKIVEIVPS [r1_174_TrROS]”, the “folding stability dG unfold” value in series [1] stood at 1.64 ± 0.051 kcal/mol; in series [2] it was 1.76 ± 0.2 kcal/mol; in series [3], 1.76 ± 0.074 kcal/mol.
